Results reported in the nanobody polyreactivity screen of Harvey et al. (2022).

Assay: yeast display, Sf9 membrane polyspecificity reagent, FACS + sequencing; frameworks hold sequencing errors
In short: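 After 36–48 hours of galactose induction, yeast (Saccharomyces cerevisiae BJ5465) displaying a synthetic nanobody library were stained at 4 °C for 1 hour with 10% biotinylated, detergent-solubilized Sf9 membrane reagent. Streptavidin microbeads enriched the stained cells before FACS sorting into low and high (top ~1%) gates on anti-HA and streptavidin fluorescence. Each clone's polyreactivity label reflects its gate of origin.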

**Q.** With “QVQLVESGGGLVQAGGSLRLSCAASGRTFGRNAMGWYRQAPGKERELVAAINGNGGRTSYADSVKGRFTISRDNAKNTVYLPMNSLKPEDTAVYYCNKYTPGWYRYYYWGQGTQVTVSS” as the sequence, how does the “polyreactivity (PSR sort gate)” value read?
**A.** high polyreactivity

**Q.** With “QVQLVESGGGLVQAGGSLRLSCAASGRTFAAYDMGWYRQAPGKERELVAAITSGGSTNYADSVKGRFTISRDNAKNTVYLQMNSLKPEDTAVYYCNARFRKWPQARYGVRYYYWGQGTQVTVSS” as the sequence, how does the “polyreactivity (PSR sort gate)” value read?
**A.** high polyreactivity

**Q.** Which “polyreactivity (PSR sort gate)” value does the source give for “QVQLVESGGGLVQAGGSLRLSCAASGRTFGGYAMGWYRQAPGKERELVAAIRSRGGRTYYADSVKGRFTISRDNAKNTVYLQMNSLKPEDTAVYYCATYGNKWGEDYWGQGTQVTVSS” here?
**A.** high polyreactivity

**Q.** For “QVQLVESGGGLVQAGGSLRLSCAASGRIFATYVMGGYRQAPGKERELVATISSGGSTNYADSVKGRFTISRDNAKNTVYLQMNSLKPEDTAVYYCAVVDGNYWYVKGDYWGQGTQVTVSS”, which “polyreactivity (PSR sort gate)” value is on record?
**A.** low polyreactivity

**Q.** For “QVQLVESGGGLLQAGGSLRLSCAASGSTFDIYAMGWYRQAPGKERELVAVISGGDGSTYYADSVKGRFTISRENAKNTVYLQMNSLKPEDTAVYYCAADDISPGYWDGEYDCWGQGTQVTVSS”, which “polyreactivity (PSR sort gate)” value is on record?
**A.** low polyreactivity

**Q.** With “QVQLVESGGGLVQAGGSLRLSCAASGLTFTVNAMGWYRQAPGKERELVARIRNSGGRTYYADSVKGRFTISRDNAKNTVYLQMNSLKPEDTAVYYCAARRYYYQVGYDYWGQGTQVTVSS” as the sequence, how does the “polyreactivity (PSR sort gate)” value read?
**A.** high polyreactivity

**Q.** With “QVQLVESGGGLVQAGGSLRLSCAASGITFRTNTMGWYRQAPGKEREFVAAISSNGGRTYYADSVKGRFTISRDNAKNTVYLQMNSLKPEDTAVYYCNARTKHRYEYDYWGQGTQVTVSS” as the sequence, how does the “polyreactivity (PSR sort gate)” value read?
**A.** high polyreactivity

**Q.** For “QVQLVESGGGLVQAGGSLRLSCAASGSIFGRYAMGWYRQAPGKEREFVSAISSSGGRTYYADSVKGRFPISRDNAKNTVYLQMNSLKPEDTAVYYCATEGYYSRTRLYLEYDYWGQGTQVTVSS”, which “polyreactivity (PSR sort gate)” value is on record?
**A.** high polyreactivity

**Q.** For “QVQLVESGGGLVQAGGSLRLSCAASGLTFAYYAMGWYRQAPGKDRELVAAISWNGGRTYYADSVKGRFTISRDNAKNTVYLQMNSLKPEDTAVYYCAAQVTSSFYWGQGTQVTVSS”, which “polyreactivity (PSR sort gate)” value is on record?
**A.** high polyreactivity

**Q.** With “QVQLVESGGCLVQAGGSLRLSCAASGRIFGSYAMGWYRHPPGKERELVAAISGSGGRTYYADSVKGRFTISRDNAKNTVYLQMNSLKPEDTAVYYCAADSQSFGYGYWGQGTQVTVSS” as the sequence, how does the “polyreactivity (PSR sort gate)” value read?
**A.** high polyreactivity

**Q.** For “QVQLVESGGGLVQAGGSLRLSCAASGFTFDHYAMGWCRQAPGKERELVAAITSSGGRTYYADSVKGRFTISRDNAKNTVYLQMNSLKPEDTAVYYCNARPVYYSGYGYWGQGTQVTVSS”, which “polyreactivity (PSR sort gate)” value is on record?
**A.** high polyreactivity

**Q.** Which “polyreactivity (PSR sort gate)” value does the source give for “QDQLVESGVGLVQAGGSLRLSCAASGSTFYYYAMGWYRQAPGKERELVAAITSDGSTNYADSVKGRFTISRDNAKNTVYLQMNSLKTEDTAVYYCAKTYYWGYDWGQGTQVTVSS” here?
**A.** low polyreactivity

**Q.** With “QVQLVESGGGLVQAGGSLRLSCAASGRIFYGYVMGWYRQAPGKETELVAAMTWSGSRTYYADSVKGRFTISRDNAKNTVYLQMNSLKPEDTAVYYCAARIPSDGYSYWGQVTQVTVSS” as the sequence, how does the “polyreactivity (PSR sort gate)” value read?
**A.** high polyreactivity

**Q.** Which “polyreactivity (PSR sort gate)” value does the source give for “QVQLVESGGGLVQAGGSLRLSCAASGFIFYNYAMGWYRQAPGKERELVAAISKSGDSTYYADSVKGRFTISRDNAKNTVYLQMNSLKPEDTAVYYCNKEIVWHLWYESWGQGTQVTVSS” here?
**A.** high polyreactivity

**Q.** With “QVQLVESGGGLVQAGGSLRLSCAASGRTFLGYAMGWYRQAPGKERELVAAITSGTRTYADSVKGRFTISRDNAKYTVYLQMNSLKPEDTAVYYCAALRWQYRLYSYSFRSGRFDYWGQGTQVTVSS” as the sequence, how does the “polyreactivity (PSR sort gate)” value read?
**A.** low polyreactivity

**Q.** Which “polyreactivity (PSR sort gate)” value does the source give for “QVQLVESGGGLVQAGGSLRLSCAASGITFEKYAMGGYRQAPGKERELVAAITSSGGSTYYADSVKGRFTISRDNAKNTVYLQMNSLKPEDTAVYYCKARYYYADRTSGGYYYWGQGTQVTVSS” here?
**A.** high polyreactivity

**Q.** With “QVQLVESGGGLVQAGASLRLSCAASGRTYRWYTMGWYRPAPGKERELVAAITSRGGSTYADSVKGRFTISRDNAKNTVYLQMNSLKPEDTAVYYCNAARTYQYDYWGQGTQVTVSS” as the sequence, how does the “polyreactivity (PSR sort gate)” value read?
**A.** high polyreactivity

**Q.** Which “polyreactivity (PSR sort gate)” value does the source give for “QVQHVESGAGLVQAGGSLRLTCAASARTFKPYARGWYRQPPGKERELLAVISFSGGSTYYADSVKGRFTISRDNSKNTFYLQMNSLKPEDTAVYYCNAEGVTRQGGYDYWGQGTQVTVSS” here?
**A.** high polyreactivity

**Q.** With “QVQLVESGGGLVQAGGSLRLICAASGITYRYAMGWYRQAPGKERELVAAITSSGASTYYADSVKGRFTISRDNAKNTVYLQMNSLKPEDTAVYYCATPLRKVYGGYVYWGQGTQVTVSS” as the sequence, how does the “polyreactivity (PSR sort gate)” value read?
**A.** low polyreactivity

**Q.** With “QVQLVESGGGLVQERGSLRLSCAASGSIFFPYAMGWSRQAPGKDRELVAAITRGGNTKYADSVKGRFTISRDNAKNTVYIQMNSLKPEDTAVFYCAARGASIPYGYWGQGTQVTVSS” as the sequence, how does the “polyreactivity (PSR sort gate)” value read?
**A.** high polyreactivity

**Q.** Which “polyreactivity (PSR sort gate)” value does the source give for “QVQLVESGGGLVQAGGSLRLSCAASGRIFGHYTMGWYRQAPGKERELVAAISWGGVRTYYADSVKGRFTISRDNAKNTVYLQMNSLKPEVTAVYYCAARWRRYVYPDGHLFWYDYWGQGTQVTVSS” here?
**A.** high polyreactivity

**Q.** Which “polyreactivity (PSR sort gate)” value does the source give for “QVQLVESGGGLVQAGGSLRLSCAASGFIFADNTMGWYRQAPGKERELVGAISRRGGSTYYADSVKGRFTISRDNSKNTVYLQMNSLKPEDTAVYYCAARPFVKHDYWGQGTLVTVSS” here?
**A.** high polyreactivity

**Q.** With “QVQLVESGGGLVQAGGSLRLICAASGSTFKWYAMGWYRQAPGKERELVAAISSSGGTTYYADSVKGRFTISRDNAKNTVYLQMNSLKPEDTAVYYCAKPYLYSGYGYWGQGTQVTVSS” as the sequence, how does the “polyreactivity (PSR sort gate)” value read?
**A.** high polyreactivity

**Q.** Which “polyreactivity (PSR sort gate)” value does the source give for “QVQLVDSGVGLVQAGGSLRLSCAASGNTFSSYTMGWYIQAPGKERELVAGISRTGTSTYYADSVKGRFTISRDNAKNSVYLQMNSLKPEDTAVYYCAARTGWWYYWGQGTQVSVSS” here?
**A.** high polyreactivity

**Q.** With “QVQLVESGGGLVQAGGSLRLSCAASGSIFYWYAMGWYRQAPGKERELVAAITRSAGTTYYADSVKGRITISRDNAKNTVYLQMNSLKPEDTAVYYCAATYPRPYGSRPRYEYWGQGTQVTVSS” as the sequence, how does the “polyreactivity (PSR sort gate)” value read?
**A.** high polyreactivity

**Q.** With “QVQLVESGGGLVQAGGSLRLSCAASGRIFSSYAMGWYRQAPGKERELVAAITRGGSTYYADSVKGRFTISRDNAKNTVYLQMNSLKPEDTAVYYCNAVGFYAANTFDYWGQGTQVTVSS” as the sequence, how does the “polyreactivity (PSR sort gate)” value read?
**A.** high polyreactivity

**Q.** For “QVQLVETVRGLVQAGGSLRITCAASGRIYAYYSMGWYRQPPGKERELVAAITRSGGSTYYADSVKGRFTNSRDIAKYTVYIQMISLKPEDNAVYYCAPSLNVPYATMNYWGQGTQVTVSA”, which “polyreactivity (PSR sort gate)” value is on record?
**A.** high polyreactivity

**Q.** With “QVQLVESGGGLVQAGGSLRLSCAASGSIFNDYAMGWYRQAPGKERELVAAITSSDGRTFYADSVKGRFTISRDNAKNTVYLQMNSLKPEDTAVYYCAAEWTSRYSTYEYWGQGTQVTVSS” as the sequence, how does the “polyreactivity (PSR sort gate)” value read?
**A.** low polyreactivity

**Q.** For “QVLLVESGGGLVQAGGSLRLSCAASGYIIDVNAMGWYRQAPGKERELVASISSGTSTYYADSVKGRFTISRDNAKNTVYLQMNSLKPEDTAVYYCNAGVEFAASLYYSDNYDYWGQGTQVTVSS”, which “polyreactivity (PSR sort gate)” value is on record?
**A.** low polyreactivity

**Q.** Which “polyreactivity (PSR sort gate)” value does the source give for “QVQLQESGGGLLQADGSLRLSCAASGTIFTQSYMGWYRQAPGKEREFVAGISNGTNTNYGDSVKGRFTISRDNAKNTVYLQMNSLKLEDTAVYYCAVKGFYVDVLAYWGQGTHVTVSS” here?
**A.** high polyreactivity

**Q.** For “QVQLVESGGGLVQAGGSLRLSCAASGSTFDSNTMRWYRQAPGKETELVAAITVSGGSTHYADSVKGRFTISRDNAKNTVYLQMNSLKPEDTAVYYCNRRSYGYGAFSGYDYWGQGTQVTVSS”, which “polyreactivity (PSR sort gate)” value is on record?
**A.** low polyreactivity

**Q.** Which “polyreactivity (PSR sort gate)” value does the source give for “QVQLVESGGGLVQAGGSLRLSCAASGSILGTYAMGWYRQAPGKERELVAAISSSGRTSYADSVKGRFTISRDNAKNTVYLQMNSLKPEDTAVYYCNASNYIFLINDPDAAPWLYDYWGQGTQVTVSS” here?
**A.** low polyreactivity

**Q.** With “QVQLVESGGGLVQAGGSLRLSCAASGRIFRDNAMGWYRQAPGKEREFVARITISTGTTYYADSVKGRFTISRDNAKNTVYLQMNSLKPEDTAVYYCAALYTVSYLTSPVSYRYDYWGQGTQVTVSS” as the sequence, how does the “polyreactivity (PSR sort gate)” value read?
**A.** low polyreactivity

**Q.** With “QVQLVESGGGLVQAGGSLRLSCAASGSTFYYNAMGWYRQAPGKEREFVAAISSRGGSTYYADSVKGRFTISRDNAKTTVYLQMNSLKPEDTAVYYCAAKYRHRYDWGQGTQVTVSS” as the sequence, how does the “polyreactivity (PSR sort gate)” value read?
**A.** high polyreactivity

**Q.** Which “polyreactivity (PSR sort gate)” value does the source give for “QVQLVESGGGLVQAGGSLRLSCAASGYIFNKYVMGWYRQAPGKERELVAAISASGGSTYYADSVKGRFTISRDNAKNTVYLQMNSLKPEDTAVYYCAATLYRRMDYWGQGTEVTVSS” here?
**A.** high polyreactivity

**Q.** With “QVQLVESCGGLVQAGGSLRLSCAASGSTFVHNAMGWNRQAPGKESELVAAITSRTGITYYADSLKGRFTISRDNAKNTFYLEMNSLKPEDTSVFYCAKRHVRTHRLQFDYWGQGTQVTVSS” as the sequence, how does the “polyreactivity (PSR sort gate)” value read?
**A.** high polyreactivity

**Q.** Which “polyreactivity (PSR sort gate)” value does the source give for “QVQLVESGGGLVQAGGSLRLSCAASGYTLADYAMGWYRQAPGKERELVAAISSGGITSYADSVKGRFTISRDNAKNTVYLQMNSLKPEDTAVYYCNAAIVGFTRAYQYDYWGQGTQVTVSS” here?
**A.** high polyreactivity

**Q.** For “QVQLVESGGGLVQAGGSLRLSCAASGSTFNYYDMGWYRQAPGKERELVATITSRGRSTYYADSVKGRFTISRDNAKNTVYLQMNSLKPVDTAVYYCAADWRAYIRRAAYSPFDYWGQGTQVTVSS”, which “polyreactivity (PSR sort gate)” value is on record?
**A.** low polyreactivity

**Q.** With “QVQLVESGGGLVQAGGSLRLSCAASGFSFDTYAMGWYRQAPGKERELVAVISRGGSTYYADSVKGRFTISRDNAKNTVYLQMNSLKPEDTAVYYCAARSHGSYAYQYGYWGQGTQVTVSS” as the sequence, how does the “polyreactivity (PSR sort gate)” value read?
**A.** high polyreactivity

**Q.** Which “polyreactivity (PSR sort gate)” value does the source give for “QVQLVESGGGLVQAGGSLRLICAASGIFSYYARGWYRQAPGKERELVATISRRGSSTYYADSVKGRFTISRDNAKNTVYLQMNSLKPEDTAVYYCNADIGWGRFSQSFDYWGQGTQVTVSS” here?
**A.** low polyreactivity

**Q.** Which “polyreactivity (PSR sort gate)” value does the source give for “QVQLVESGGGLVQAGGSLRLSCAASGYTFSVNVMGWYRQAPGKERELVAAISGRGGRTYYADSVKGRFTISRDNAKNTVYLQMNSLKPEDTAVYYCAAVRGKPGRISYPYDYWGQGTQVTVSS” here?
**A.** high polyreactivity
